Test results from paper PMC4259358, “Functional Characterization of Nuclear Localization and Export Signals in Hepatitis C Virus Proteins and Their Role in the Membranous Web” (PLoS ONE, 2014).
pKd: −log10 of the molar value.

What was measured:
Test in all cases: ELISA; plates coated with synthetic peptide (10 µg/ml, carbonate buffer pH 9.6); increasing concentrations of recombinant NTF, 2 h, room temperature; anti-HIS detection; apparent Kd
[1] = molecular target: SV40 NLS synthetic peptide (fused to penetratin) (SV40 | not stated)
[2] = molecular target: NS3 NLS 2 synthetic peptide (fused to penetratin) (hepatitis C virus | not stated)
[3] = molecular target: Core NLS 4 synthetic peptide (fused to penetratin) (hepatitis C virus | not stated)
[4] = molecular target: NS5A NLS synthetic peptide (fused to penetratin) (hepatitis C virus | not stated)

recombinant IPOA5 (importin α5/kap α1), P52294 1-538 (natural protein; other documents disagree on this pair)
pKd [1]: 7.57 | pKd [2]: 7.44 | pKd [3]: 6.29 | pKd [4]: 5.12
